Values quoted from earlier work in paper PMC6005205.

Target: ACKR3 (Homo sapiens) (UniProt P25106)
UniProt P25106, sequence (P25106 whole entry): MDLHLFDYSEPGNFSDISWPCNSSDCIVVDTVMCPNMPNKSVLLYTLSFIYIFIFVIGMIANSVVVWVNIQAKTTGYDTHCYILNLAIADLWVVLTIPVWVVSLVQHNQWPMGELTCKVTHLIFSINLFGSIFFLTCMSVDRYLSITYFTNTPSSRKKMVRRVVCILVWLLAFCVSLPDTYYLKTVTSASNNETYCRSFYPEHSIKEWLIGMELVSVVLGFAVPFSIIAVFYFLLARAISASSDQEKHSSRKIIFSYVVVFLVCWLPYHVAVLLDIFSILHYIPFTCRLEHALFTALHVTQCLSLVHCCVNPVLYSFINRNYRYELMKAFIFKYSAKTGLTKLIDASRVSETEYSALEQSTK

In the case of adrenomedullin (from UniProt P35318), the Kd is listed as 200 pM.
